Values joined by “and” are separate entries in the source; they are usually repeats but may differ in a detail not shown here. Identical values can stand only once.
Columns and labels:
[1] = target: T1, EGFRvIII, full length, expressed on cells (human, UniProt P00533 25-1210); test: cell-based or functional assay
[2] = target: T2, EGFRvIII-Rabbit Fc fusion protein (human; rabbit, UniProt P00533 25-645); test: ELISA, recombinant antibody supernatant on coated EGFRvIII-RbFc, 1.5 ug/ml
T2 construct: Made in 293F cells; also called EGFRvIII-RbFc; EGFRvIII-Rab Ig Fc fusion protein; not shown: Hinge-CH2-CH3 domain of rabbit IgG (721 bp fragment)
Description: The secretion ELISA tests were performed as follows. For Ab secretion, 2 μg/mL of Goat anti-human IgG H+L and for antigen binding, 1.5 μg/ml of EGFRvIII-Rab Ig Fc fusion protein was coated onto Costar Labcoat Universal Binding Polystyrene 96 well plates and held overnight at four degrees. The plates were washed five times with dH₂O. Recombinant antibodies were titrated 1:2 for 7 wells from the undiluted minilipofection supernatant. The plates were washed five times with dH₂O. A goat anti-human IgG Fc-specific HRP-conjugated antibody was added at a final concentration of 1 μg/mL for 1 hour at RT for the secretion plates and binding plates detected with 1 μg/ml Rb anti Hu Fc for 1 hour at room temperature. The plates were washed five times with dH₂O. The plates were developed with the addition of TMB for 30 minutes and the ELISA was stopped by the addition of 1 M phosphoric acid. Each ELISA plate was analyzed to determine the optical density of each well at 450 nm.

[3] = target: T1, EGFRvIII, full length, expressed on …; test: cell-based or functional assay; remark: listed apart in the source
[4] = target: T1, EGFRvIII, full length, expressed on …; test: FACS on NR6 M cells, antibody at 0.25 ug/ml, no glutathione
Description: XenoMax derived IgG1 recombinant antibodies were expressed, purified and quantitated as described previously. Antibodies were further assayed for their ability to internalize the EGFRvIII receptor in NR6 M cells. […] The cells were washed with cold 10% FCS in PBS and secondary antibody (SS Alexa antihuman IgG Fab) at 3 μg/ml Fab was added and incubated for 7 mins on ice. The cells were washed with cold 10% FCS in PBS once and then resuspended in cold media. Next, two sets of the triplicate were incubated at 37° C. and the remaining set was incubated at 4° C. for 1 hr. After that the cells incubated at 4° C. and one set of the cells incubated at 37° C. were treated with glutathione (as previously mentioned) for 1 hr on ice. Then the cells were washed and resuspended in 100 μl of cold 1% FCS in PBS and analyzed by FACS. The % internalization was calculated from the geometric mean obtained from the FACS analysis [(mean at 37° C. with glutathione−mean at 4° C. with glutathione)/(mean at 37° C. without glutathione−mean at 4 C with glutathione)].

Binder | IC50 of cell growth inhibition (CellTiter-Glo, U251vIII cells) [1] | Titer, antigen binding [2] | % internalization [3] [%] | FACS Geometric mean, without glutathione 37 C [4] [geometric mean]
Ab 131-DM1 conjugate (antibody, V domains shown, DM1 linked through SMCC (MCC) to amine groups of the antibody, 3.0-3.5 DM1 molecules per antibody; sites not stated) VH: QVQLVESGGGVVQSGRSLRLSCAASGFTFRNYGMHWVRQAPGKGLEWVAVIWYDGSDKYYADSVRGRFTISRDNSKNTLYLQMNSLRAEDTAVYYCARDGYDILTGNPRDFDYWGQGTLVTVSS VL: DTVMTQTPLSSHVTLGQPASISCRSSQSLVHSDGNTYLSWLQQRPGQPPRLLIYRISRRFSGVPDRFSGSGAGTDFTLEISRVEAEDVGVYYCMQSTHVPRTFGQGTKVEIK | 0.068 nM DM1 equivalents and 3 ng/mL |  |  | 
SC-EGFRvIII-XG1-318 (antibody, IgG1, V domains shown, Recombinant IgG1 kappa; also called mAb ID 141A10) VH: QVQLVESGGGVVQPGRSLRLSCVASGFTLSSYGMHWVRQAPGKGLEWVAVTSYDGSKKDYADSVKGRFTISRDNSKNTLYLQMNSLRAEDTAVYYCVSEGYCDSSSCYKYYYYGMDVWGQGTTVTVSS VL: DIVMTQSPLSLPVTPGEPASISCRSSQSLLYRNGNNYLDWYLQRPGQSPQLLIYLGSNRASGVPDRFSGSGSGTDFTLKISRVEAEDVGVYYCMQALQTPRTFGQGTKVEIK |  | 64 titer (1:x dilution of supernatant) |  | 
SC-EGFRvIII-XG1-123/124 (antibody, IgG1, V domains shown, Recombinant IgG1 kappa; also called mAb ID 129A7) VH: QVQLVESGGGVVQPGRSLRLSCAASGFTLSSYGMHWVRQAPGKGLEWVAVMSYDGSKEDYADSVKGRFTISRDNSENTLYLQMNSLRAEDTAVYYCVSEGYCSSRSCYKYYYYGMDVWGQGTTVTVSS VL: DIVMTQSPLSLPVTPGEPASISCRSSQSLLYRNGNNYLDWYLQKPGQSPQLLIYLGSNRASGVPDRFSGSGSGTDFTLNISRVEAEDVGHYYCMQALQTPRTFGQGTKVEIK |  | > 64 titer (1:x dilution of supernatant) |  | 
SC-EGFRvIII-XG1-211 (antibody, IgG1, V domains shown, Recombinant IgG1 kappa; also called sc211; SC211) VH: QVQLVESGGGVVQPGRSLRLSCVASGFTLSSYGMHWVRQAPGKGLEWVAVTSYDGSKKDYADSAKGRFTISRDNSKNTLYLQMNSLRAEDTAVYYCVSEGYCSSSSCYKYYYYGMDVWGQGTTVTVSS VL: DIVMTQSPLSLPVTPGEPASISCRSSQSLLYRNGNNYLDWYLQRPGQSPQLLIYLGSNRASGVPDRFSGSGSGTDFTLKISRVEAEDVGVYYCMQALQTPRTFGQGTKVEIK |  | > 64 titer (1:x dilution of supernatant) | 21.6 | 20.8
SC-EGFRvIII-XG1-139 (antibody, IgG1, V domains shown, Recombinant IgG1 kappa; also called sc139; SC139) VH: EVQVLESGGGLVQPGGSLRLSCAASGFTFSSYAMSWVRQAPGKGLEWVSAISGSGGSTNYADSVKGRFTISRDNSKNTLYLQMNSLRAEDTAVYYCAGSSGWSEYWGQGTLVTVSS VL: DIQMTQSPSSLSASVGDRVTITCRASQGIRNNLAWYQQKPGKAPKRLIYAASNLQSGVPSRFTGSGSGTEFTLIVSSLQPEDFATYYCLQHHSYPLTSGGGTKVEIK |  | > 64 titer (1:x dilution of supernatant) | 80.8 | 22.6
SC-EGFRvIII-XG1-250 (antibody, IgG1, V domains shown, Recombinant IgG1 kappa; also called sc250; SC250) VH: EGQLLESGGGWVQPGESLRLSCAASGFTFSSYAMSWVRQAPGKGLEWVSAISGSGGSTNYADSVKGRFTISRDNSKNTLYLQVNSLRVEDTAVYYCAGSSGWSEYWGQGTLVTVSS VL: DIQMTQSPSSLSASVGDSVTITCRTSQGIRKNLGWYQQKPGKAPKRLIYAASSLQSGVPSRFSGSGSGTEFTLTISRLQPEDFATYYCLQHHSYPLTFGGGTRVEIR |  | > 64 titer (1:x dilution of supernatant) | 16.7 | 24.1

Continued, values first:

IC50 of cell growth inhibition (CellTiter-Glo, U251vIII cells) [1] | Titer, antigen binding [2] | % internalization [3] [%] | FACS Geometric mean, without glutathione 37 C [4] [geometric mean] | Binder
 | > 64 titer (1:x dilution of supernatant) |  |  | anti-EGFRvIII antibody 131 (antibody, human IgG1, V domains shown, Recombinant human IgG1 kappa; also called sc131) VH: QVQLVESGGGVVQSGRSLRLSCAASGFTFRNYGMHWVRQAPGKGLEWVAVIWYDGSDKYYADSVRGRFTISRDNSKNTLYLQMNSLRAEDTAVYYCARDGYDILTGNPRDFDYWGQGTLVTVSS VL: DTVMTQTPLSSHVTLGQPASISCRSSQSLVHSDGNTYLSWLQQRPGQPPRLLIYRISRRFSGVPDRFSGSGAGTDFTLEISRVEAEDVGVYYCMQSTHVPRTFGQGTKVEIK
 | > 64 titer (1:x dilution of supernatant) | 20.1 | 20 | SC-EGFRvIII-XG2-170 (antibody, IgG1, V domains shown, kappa light chain; also called sc170; SC170) VH: QVQLQQSGPGLVKPSQTLSLTCAISGDSVSSNNAAWNWIRQSPARGLEWLGRTYYRSKWYNDYVVSVKSRITINPDTSKNQFSLQLNSVTPEDTAVYYCVRATAFDYWGQGTLVTVSS VL: AIVLTQTPLSSPVTLGQPASISCRSSQSLVHRDGNTYLSWLQQRPGQPPRLLIYKISNRFSGVPDRFSGSGAGTDFTLKISRVEPDDVGVYYCMHTTQLPWTFGQGTKVEIK
 |  | 72.4 | 22.6 | antibody 095 (antibody, IgG1, V domains shown, Recombinant IgG1 kappa; also called sc95; SC95) VH: QVQLQESGPFLVKPSQTLSLTCTVSGGSISSGGYYWSWIRQHPGKGLEWIGFIYYRGNTYYNPSLKSRVTISVDTSKNQFSLKLSSVTAADTAVYYCARDGYCSRTGCYGGWFDPWGQGTLVTVSP VL: DIVMTQTPLSSPVTLGQPASISCRSSQSLIHTDGNIYLSWLQQRPGQPPRLLIYKISNRFSGVPDRFSGSGAGTDFTLKISRVEAEDVGVYYCMQGTQFPITFGQGTRLEIK
 | > 64 titer (1:x dilution of supernatant) | 20 | 20.3 | SC-EGFRvIII-XG2-150 (antibody, IgG1, V domains shown, kappa light chain; also called sc150; SC150) VH: QVQLQQSGPGLVKPSQTLSLTCAISGDSVSSYSSAWNWIRQSPSRGLEWLGRAYHRSRWYYEYAVSVKSRINITPDTSKNQFSLQLNSVTPEDTAVYYCARGSRFDYWGQGTLVTVSS VL: DIVMTQTPLSSPVTLGQPASISCRSSQSLVHRDGNTYLSWLQQRPGQPPRLLIYKISNRFSGVPDRFSGSGAGTDFTLKISRVEAEDVGIYFCMHTTQFPWTFGQGTRVEIK
 | > 64 titer (1:x dilution of supernatant) |  |  | SC-EGFRvIII-XG1-342 (antibody, IgG1, V domains shown, Recombinant IgG1 kappa; also called mAb ID 124D4) VH: QVQLVESGGGVVQPGRSLRLSCVASGFTLSSYGMHWVRQAPGKGLEWVAVTSYDGSKKDYADSVKGRFTISRDNSKNTLYLQMNSLRAEDTAVYYCVSEGYCDSTSCYKYYYYGMDVWGQGTTVTVSS VL: DIVMTQSPLSLPVTPGEPASISCRSSQSLLYRNGNNYLDWYLQRPGQSPQLLIYLGSNRASGVPDRFSGSGSGTDFTLKISRVEAEDVGVYYCMQALQTPRTFGQGTKVEIK
 | > 64 titer (1:x dilution of supernatant) |  |  | SC-EGFRvIII-XG1-333 (antibody, IgG1, V domains shown, Recombinant IgG1 kappa; also called mAb ID 132D8) VH: QVQLVESGGGVVQPGRSLRLSCVASGFTLSSYGMHWVRQALGKGLEWVAVTSYDGSKKDYADSVKGRFTISRDNSKNTLYLQMNSLRAEDTAVYYCVSEGYCDSTSCYKYYYYGMDVWGQGTTVTVSS VL: DIVMTQSPLSLPVTPGEPASISCRSSQSLLYRNGNNYLDWYLQRPGQSPQLLIYLGSNRASGVPDRFSGSGSGTDFTLKISRVEAEDVGVYYCMQALQTPRTFGQGTKVEIK
 |  | 82.5 | 22.1 | antibody 13.1.2 (antibody, V domains shown) VH: QVQLVESGGGVVQPGRSLRLSCAASGFTFSSYGMHWVRQAPGKGLEWVAVIWYDGSNKYYVDSVKGRFTISRDNSKNTLYLQMNSLRAEDTAVYYCARDGWQQLAPFDYWGQGTLVTVSS VL: not shown

Source: patent US20140314667A1 (Amgen, published 2014)
